Measured values as given in publication PMC4005663 (Nucleic Acids Research, 2014).

B1: GST–MLV IN NTD–CCD(1–289) (domain or fragment)
chain: IENSSPYTSEHFHYTVTDIKDLTKLGAIYDKTKKYWVYQGKPVMPDQFTFELLDFLHQLTHLSFSKMKALLERSHSPYYMLNRDRTLKNITETCKACAQVNASKSAVKQGTRVRGHRPGTHWEIDFTEIKPGLYGYKYLLVFIDTFSGWIEAFPTKKETAKVVTKKLLEEIFPRFGMPQVLGTDNGPAFVSKVSQTVADLLGIDWKLHCAYRPQSSGQVERMNRTIKETLTKLTLATGSRDWVLLLPLALYRARNTPGPHGLTPYEILYGAPPPLVNFPDPDMTRVTNS
B2: GST–MLV IN CTD(290–408) (domain or fragment)
chain: PSLQAHLQALYLVQHEVWRPLAAAYQEQLDRPVVPHPYRVGDTVWVRRHQTKNLEPRWKGPYTVLLTTPTALKVDGIAAWIHAAHVKAADPGGGPSSRLTWRVQRSQNPLKIRLTREAP
notes: not shown: GST, N-terminal, kept

Molecular target: T1, 6xHis–Brd4(1–720) (human, UniProt O60885 1-720)
T1 construct: not shown: 6xHis, N-terminal, kept
Assay: pull-down
Conditions: both partners purified

Binder	Kd
B1	> 2000 nM
B2	61.2 ± 4.05 nM
